Test results: doi:10.1101/2025.06.25.661420

Target: SUMO fusion of the glycophorin A TM domain
Test: SEC

## SUMO fusion of the glycophorin A TM domain (domain or fragment)
  stoichiometry N: 2
